Laboratory results reported in patent US20250009852A1, “DEPLETING EGFR AND HER2 OVERCOMES RESISTANCE TO EGFR INHIBITORS IN COLORECTAL CANCER” (Health Research, Inc., priority 2021, published 2025).

Test system: EGFR^R451C, EGFR^K467T, EGFR^S492R and WT EGFR
Test: Western blotting of SW620 cells transfected with EGFR or its mutant
Format: cell-based, human
Conditions: 25 nM for 48 h, extent very similar to WT EGFR
Description: pGL4.51[luc2/CMV/Neo] was purchased from Promega (Cat #E132A). pCMV6-A-EGFR-puro, reported previously, was used as a template to generate single point mutations of EGFR, including R451C, K467T, and S492R, using the QuikChange Lightning Site-Directed Mutagenesis Kit (Agilent Technologies). The primers were purchased from IDT, including primers for generating EGFR^R451C (forward: 5′-[…]-3 (SEQ ID NO:2); reverse: 5′-[…]-3′ (SEQ ID NO:3), EGFR^K467T(forward: 5-[…]-3′ (SEQ ID NO:4); reverse: 5′-[…]-3′ (SEQ ID NO:5), and EGFR^S492R (forward: 5′-[…]-3′ (SEQ ID NO:6); reverse: 5′-[…]-3′ (SEQ ID NO:7)). All constructs were confirmed by DNA sequence analysis.
Transfection of pCMV6-A-puro-EGFR, pCMV6-A-puro-EGFR^R451C, pCMV6-A-puro-EGFR^K467T or pCMV6-A-puro-EGFR^RS492R was performed using Lipofectamine 3000. SW620 cells were grown in 6-well plates (3×10^5 cells/well with 2 ml medium) for 24 h and then transfected with a plasmid at 1 μg DNA per well for 48 h. […]
Protein concentrations in all samples were measured using the BCA Assay Kit. […] Proteins were transferred to polyvinylidene fluoride membrane, probed with specific antibodies, and detected using either Luminata Classico (Millipore) or Luminata Cresendo (Millipore). […] The beads were washed three times with IP buffer, suspended in 2× SDS loading buffer, boiled for 5 min, and analyzed by Western blotting.

B1: PEPD^G278D: recombinant and enzymatically inactive mutant of human peptidase D (PEPD), with replacement of glycine 278 by aspartic acid (protein)
chain: AAATGPSFWLGNETLKVPLALFALNRQRLCERLRKNPAVQAGSIVVLQGGEETQRYCTDTGVLFLQESFFHWAFGVTEPGCYGVIDVDTGKSTLFVPRLPASHATWMGKIHSKEHFKEKYAVDDVQYVDEIASVLTSQKPSVLLTLRGVNTDSGSVCREASFDGISKFEVNNTILHPEIVESRVFKTDMELEVLRYTNKISSEAHREVMKAVKVGMKEYGLESLFEHYCYSRGGMRHSSYTCICGSGENSAVLHYGHAGAPNDRTIQNGDMCLFDMDGEYYSVASDITCSFPRNGKFTADQKAVYEAVLLSSRAVMGAMKPGDWWPDIDRLADRIHLEELAHMGILSGSVDAMVQAHLGAVFMPHGLGHFLGIDVHDVGGYPEGVERIDEPGLRSLRTARHLQPGMVLTVEPGIYFIDHLLDEALADPARASFLNREVLQRFRGFGGVRIEEDVVVIDSGIELLTCVPRTVEEIEACMAGCDKAFTPFSGPK
modifications: left off: small tags and cut ends
**Q.** With B1 as the molecule, how does the “downregulation (expression and phosphorylation) of each EGFR mutant R451C, K467T, S492R” value read?
**A.** strongly downregulated
